Experimental data published in patent publication US20160068605A1 (Janssen / Centocor, published 2016).

Tests used:
[1] = target: IL3RA-PK (CD123 tagged with ProLink) in HEK293 IL3RA-PK/CSF2RB-EA cells (UniProt P26951 19-378); assay: cell-based or functional assay
[2] = target: T1, human CD123 SP1 ECD displayed on pDisplay-transfected cells (human, UniProt P26951 20-305); assay: MSD cell binding on 293F pDisplay cells; fold change over background; parental 293F cells as control
T1 construct: ECD anchored on the surface of stably transfected HEK293 cells by the PDGFR transmembrane domain; also called hCD123 SP1 cells; hCD123 cells
T1 sequence: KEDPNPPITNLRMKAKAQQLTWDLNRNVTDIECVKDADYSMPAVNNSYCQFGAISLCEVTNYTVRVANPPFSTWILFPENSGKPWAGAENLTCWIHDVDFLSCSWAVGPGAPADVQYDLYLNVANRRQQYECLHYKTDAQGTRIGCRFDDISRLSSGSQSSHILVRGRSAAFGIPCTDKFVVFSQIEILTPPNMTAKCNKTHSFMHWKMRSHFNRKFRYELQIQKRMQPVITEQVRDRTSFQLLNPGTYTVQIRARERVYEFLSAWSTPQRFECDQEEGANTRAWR

[3] = target: T2, human CD123 SP2 ECD displayed on pDisplay-transfected cells (human, UniProt P26951 101-305); assay: as above
T2 construct: ECD anchored on the surface of stably transfected HEK293 cells; also called hCD123 SP2 cells; pDisplay CD123SP2
T2 sequence: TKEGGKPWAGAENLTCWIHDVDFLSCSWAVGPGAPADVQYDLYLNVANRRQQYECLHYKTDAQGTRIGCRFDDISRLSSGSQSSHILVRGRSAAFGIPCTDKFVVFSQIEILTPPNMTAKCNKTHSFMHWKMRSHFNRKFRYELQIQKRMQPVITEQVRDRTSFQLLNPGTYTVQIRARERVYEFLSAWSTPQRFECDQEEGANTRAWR

[4] = target: T3, cyno CD123 ECD displayed on pDisplay-transfected cells (cynomolgus monkey); assay: as above
T3 construct: ECD anchored on the surface of stably transfected HEK293 cells; also called cynoCD123 SP1 cells; cynoCD123 cells
T3 chain: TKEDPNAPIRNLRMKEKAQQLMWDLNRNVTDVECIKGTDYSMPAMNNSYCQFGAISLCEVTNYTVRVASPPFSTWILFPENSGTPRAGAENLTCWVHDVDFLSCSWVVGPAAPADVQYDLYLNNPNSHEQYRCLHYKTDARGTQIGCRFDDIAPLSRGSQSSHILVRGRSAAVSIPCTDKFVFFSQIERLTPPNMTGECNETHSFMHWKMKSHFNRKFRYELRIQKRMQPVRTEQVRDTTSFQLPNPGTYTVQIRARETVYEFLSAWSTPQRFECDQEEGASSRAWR

[5] = target: T4, Recombinant human CD123 SP1 ECD-His tag protein (human, UniProt P26951 20-305); assay: SPR ProteOn, captured mAb
T4 construct: bought from R&D Systems (#301-R3/CF); biotinylated for some assays; also called rhCD123 SP1; huCD123 ECD SP1
T4 sequence: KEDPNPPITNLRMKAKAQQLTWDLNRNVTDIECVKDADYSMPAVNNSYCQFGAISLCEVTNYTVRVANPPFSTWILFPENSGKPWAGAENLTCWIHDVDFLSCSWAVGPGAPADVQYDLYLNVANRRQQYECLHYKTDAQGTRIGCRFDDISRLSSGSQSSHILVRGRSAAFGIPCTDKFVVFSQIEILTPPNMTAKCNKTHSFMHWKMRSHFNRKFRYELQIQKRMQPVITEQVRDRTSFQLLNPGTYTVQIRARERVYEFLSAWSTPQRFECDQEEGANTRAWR

[6] = target: T3, cyno CD123 ECD displayed on …; assay: MSD cell binding assay, signal 3x over background
Description: The object of the screening assay was to identify antibodies that bound to cells expressing hCD123 SP1 and SP2 as well as cross reactivity with cells expressing cynoCD123 SP1.
Cells were immobilized and phages were assayed in triplicate. […] 5000 cells per well were plated into a 384 well plate (MA6000, cat. L21XB, MSD) and allowed to adhere for 2 hr. Cells were then blocked with 20% FBS in PBS (Gibco) for 15 mins. Antibody supernatants were then added and left at RT for 1 hr. Cells were washed 3 times with PBS and a ruthenium labeled secondary antibody (Jackson Immuno Research) was then added at 1 μg/mL and incubated for 1 hr at room temperature. A further washing step was then applied and 35 μL per well of MSD Read buffer T (surfactant free) was then added and incubated for 30 min for detection. Plates were then read using Sector Imager 2400 (MSD). Data was normalized to controls and graphed using GraphPad Prism Version 5. A positive binder was determined to be a hit with a signal 3× greater than background (FIGS. 2A, B and C).

[7] = target: T5, Recombinant human CD123 SP2 ECD protein (human, UniProt P26951 101-303); assay: SPR ProteOn, captured mAb
T5 construct: also called rhCD123 SP2; CD123 ECD SP2
T5 sequence: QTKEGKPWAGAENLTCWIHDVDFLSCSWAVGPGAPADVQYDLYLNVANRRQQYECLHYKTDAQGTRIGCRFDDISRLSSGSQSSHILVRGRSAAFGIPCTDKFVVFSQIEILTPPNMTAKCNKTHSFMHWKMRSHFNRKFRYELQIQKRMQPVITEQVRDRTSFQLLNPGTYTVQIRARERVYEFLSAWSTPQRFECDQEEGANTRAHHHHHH

[8] = target: T2, human CD123 SP2 ECD displayed on …; assay: MSD-CAT on pDisplay cells
Description: The MSD-CAT was developed in-house as a label-free method to determine affinity using intact cells in a high throughput format. […] Cell lines used were human pDisplay CD123SP1 and pDisplay CD123SP2. […] These samples were prepared in DMEM Glutamax medium containing 0.05% Azide, 1% BSA, 3 mM EDTA. […] After equilibration the plate was centrifuged for 5 minutes ˜1000 rpm and free anti-CD3 detected on the supernatant. […] The assay buffer was removed without washing and 50 uL/well of 0.7 ug/mL of biotinylated antigen in assay buffer were added to MSD plates and incubated overnight (˜16 hours at 4° C.).

[9] = target: T4, Recombinant human CD123 SP1 ECD-His tag …; assay: SPR Biacore 3000, captured mAb
Description: (§1) Kinetic studies were performed at 25° C. using a Biacore 3000 (BIAcore, Inc., now part of GE Healthcare). […] Sheep anti-Human Fd specific antibody (The binding site Prod # PC075) was covalently attached to two flow cells (normally 3 and 4) of the carboxymethyl dextran coated gold surfaces (CM-5 Chip, Biacore). The carboxymethyl groups of dextran were activated with N-Ethyl-N′-(3-Dimethylaminopropyl)carbodiimide (EDC) and N-hydroxysuccinimide (NHS). The antibodies were coupled at pH 4.5 in 10 mM sodium acetate. Any remaining reactive sites on the surface were blocked by reaction with ethanolamine. […] Association data was collected for 2 min followed by 10 min of dissociation. The surface was regenerated with 30 μL of 100 mM H3PO4 100 μL/min. All samples were prepared in D-PBS containing 3 mM EDTA and 0.005% surfactant P20. Data reported is the difference in SPR signal between the flow cell containing the captured antibody or Fab and a reference cell without captured antibody or Fab. Additional instrumental contributions to the signal were removed by subtraction of the data from the blank injection from the reference-subtracted signal. Data were performed in triplicate and analyzed by fitting association and dissociation phases at all concentrations (global fit) with a 1:1 binding model using the BIAevaluation software (BIAcore, Inc.). […] Data presented is an average.

[10] = target: T5, Recombinant human CD123 SP2 ECD protein; assay: SPR Biacore 3000, captured mAb
Description: as §1

[11] = target: T3, cyno CD123 ECD displayed on …; assay: MSD-CAT on pDisplay cells
Description: (§2) After equilibration the plate was centrifuged for 5 min ˜1000 rpm and free anti-CD3 detected on the supernatant. […] The assay buffer was removed without washing and 50 μL/well of 0.7 μg/mL of biotinylated antigen in assay buffer were added to MSD plates and incubated overnight (˜16 hr at 4° C.). After overnight incubation, the plates were blocked by adding 150 μL/well of assay buffer without removing coating antigen, incubated for ˜1 hr at ambient temperature and washed 5 times with wash buffer (assay buffer without BSA). 50 μL/well of the supernantants from samples plate were transferred to antigen-coated plates, incubated for 60 min, and then washed three times with wash Buffer. After this 50 μL per well of ruthenium labeled detection antibody(anti-human H+L) were added and incubated for 1 hr. After 1 hr the plates were washed and 150 μL of MSD Read Buffer (prepared by diluting 1:4 of stock into d. H₂O) were added per well. The plates were read immediately on the MSD Sector Imager 6000 Reader for luminescence levels. ECL signal detected by MSD was expressed in term of % free antibody in the mixture and the data was analyzed to determine affinity using a user defined equation (derived from the law of mass action) introduced in Prism software.

[12] = target: T4, Recombinant human CD123 SP1 ECD-His tag …; assay: SPR Biacore 3000, captured Fab
Description: as §1

[13] = target: T5, Recombinant human CD123 SP2 ECD protein; assay: SPR Biacore 3000, captured Fab
Description: as §1

[14] = target: T1, human CD123 SP1 ECD displayed on …; assay: MSD-CAT, hCD123 cells, assay-1
Description: as §2

[15] = target: T1, human CD123 SP1 ECD displayed on …; assay: MSD-CAT, hCD123 cells, assay-2
Description: as §2

[16] = target: T3, cyno CD123 ECD displayed on …; assay: MSD-CAT, cynoCD123 cells, assay-1
Description: (§3) The MSD-CAT was developed in-house as a label-free method to determine affinity using intact cells in a high throughput format. […] Cell lines used were human pDisplay CD and cyno pDisplay CD123SP1. […] These samples were prepared in DMEM Glutamax medium containing 0.05% Azide, 1% BSA, 3 mM EDTA. The receptor numbers of (3.15-4.18)×10⁶ hCD123/cell and (4.78-9.24) 10⁶ cyCD123/cell were converted to M receptor concentration in the mixture on the basis of the volume of reaction, the cell density (cells/L) and the Avogadro's number. […] After equilibration the plate was centrifuged for 5 min ˜1000 rpm and free anti-CD3 detected on the supernatant.

[17] = target: T3, cyno CD123 ECD displayed on …; assay: MSD-CAT, cynoCD123 cells, assay-2
Description: as §3

B1: I3RB217 (antibody, human IgG4 S228P, kappa, F234A L235A, V domains shown)
VH: EVQLVQSGAEVKKPGESLKISCKGSGYSFTSYWISWVRQMPGKGLEWMGIIDPSDSDTRYSPSFQGQVTISADKSISTAYLQWSSLKASDTAMYYCARGDGSTDLDYWGQGTLVTVSS
VL: EIVLTQSPGTLSLSPGERATLSCRASQSVSSSYLAWYQQKPGQAPRLLIYGASSRATGIPDRFSGSGSGTDFTLTISRLEPEDFAVYYCQQDYGFPWTFGQGTKVEIKR
[1]
  IC50 (read off the curve): IL-3-induced CD123/CD131 heteromerization (RLU): ~0.1 µg/mL

B2: I3RB25 (antibody, V domains shown)
VH: QVQLVQSGAEVKKPGSSVKVSCKASGGTFSSYGISWVRQAPGQGLEWMGGISAIFGNANYAQKFQGRVTITADESTSTAYMELSSLRSEDTAVYYCARRFKWWESYFDYWGQGTLVTVSS
VL: not shown
[2]
  binding result: no binding (tested: 10 µg/mL)
[3]
  binding result: no binding (tested: 10 µg/mL)
[4]
  binding result: no binding (tested: 10 µg/mL)

B3: I3RB21 (antibody, IgG1, V domains shown)
VH: QVQLVQSGAEVKKPGSSVKVSCKASGGTFSSYAISWVRQAPGQGLEWMGGIIPIFGTANYAQKFQGRVTITADESTSTAYMELSSLRSEDTAVYYCAREGWWGQGKFDYWGQGTLVTVSS
VL: EIVLTQSPATLSLSPGERATLSCRASQSVANFLAWYQQKPGQAPRLLIYAASNRATGIPARFSGSGSGTDFTLTISSLEPEDFAVYYCQQYFHWPYTFGQGTKVEIK
notes: IgG1
[5]
  Kd: 2.19 nM
  koff: 0.00114 s⁻¹
  kon: 521000 M⁻¹ s⁻¹
[6]
  binding result: binds

B4: I3RB2 (antibody, IgG1, V domains shown)
VH: EVQLLESGGGLVQPGGSLRLSCAASGFTFSGYWMHWVRQAPGKGLEWVSAIRSDGSSKYYADSVKGRFTISRDNSKNTLYLQMNSLRAEDTAVYYCAKDGVIEDTFDYWGQGTLVTVSS
VL: EIVLTQSPATLSLSPGERATLSCRASQSVSSYLAWYQQKPGQAPRLLIYDASNRATGIPARFSGSGSGTDFTLTISSLEPEDFAVYYCQQRSNWPLTFGQGTKVEIK
notes: IgG1; also called I3RB02; 13RB2
[5]
  Kd: 4.5 nM
  koff: 0.00477 s⁻¹
  kon: 1.06e+06 M⁻¹ s⁻¹
[7]
  Kd: 1.85 nM
  koff: 0.00335 s⁻¹
  kon: 1.81e+06 M⁻¹ s⁻¹
[8]
  Kd: 0.036 nM
[9]
  Kd: 7.7 nM
  koff: 0.00372 s⁻¹
  kon: 481000 M⁻¹ s⁻¹
[10]
  Kd: 1.4 nM

B5: I3RB119 (Fab, V domains shown)
VH: EVQLVQSGAEVKKPGESLKISCKGSGYSFTSYWISWVRQMPGKGLEWMGIIDPSDSDTRYSPSFQGQVTISADKSISTAYLQWSSLKASDTAMYYCARGDGSTDLDYWGQGTLVTVSS
VL: EIVLTQSPGTLSLSPGERATLSCRASQSVSSSYLAWYQQKPGQAPRLLIYGASSRATGIPDRFSGSGSGTDFTLTISRLEPEDFAVYYCQQDYGFPWTFGQGTKVEIK
notes: also called Fab I3RB119; I3RB18 Fab
[11]
  fold weaker than to human CD123 SP1: > 10 fold
[12]
  Kd: 1.8 nM
  koff: 0.000891 s⁻¹
  kon: 493000 M⁻¹ s⁻¹
[13]
  Kd: 0.4 nM
[14]
  Kd: 0.293 nM
[15]
  Kd: 0.367 nM
[16]
  Kd: > 15 nM
[17]
  Kd: > 11.9 nM
